Experimental data reported in the supplement of paper PMC12042874.
± gives the uncertainty stated by the source.

Test: amyloid nucleation score (Sup35N fusion, yeast selection) (log enrichment); library NNK3; higher = more nucleation; inactive = no reads after selection
In short: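 Yeast lacking psi expressed peptides of 20 random codons fused to Sup35N, received 100 μM copper sulfate for 24 hours, and were then grown for 7 days at 30°C on medium lacking adenine and uracil. Illumina sequencing of input and output plasmid inserts provided the reads. Nucleation scores are DiMSum log enrichments of output over input, centred on the mode of non-aggregating sequences. Any sequence with under 100 input reads was excluded.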

Substance	amyloid nucleation score
PRAMLPDWSSALVWWLN	inactive
CDMRP	inactive
SADLFVSEYKGIRMTIGNVF	inactive
RCIVSRLTWGTILISFLQNR	inactive
PVNNIYGRLPGLLKLEKVSS	inactive
RYTVSGTLSAYF	-0.112 ± 0.37
SKNATIQAMFERLVVVIS	inactive
INTEGLVVIVGGRLYVILRV	inactive
TFSNYALNVSAYRVDIFEML	0.979 ± 0.14
FIVVVLLCFG	inactive
HFSMHITMLEFLTFNSARRV	2.3 ± 0.075
NLENVLFRDRYQSSTCKLCK	inactive
GSSTYLTDLPTSPPSVFSSL	inactive
VWVFYWDKLRKF	inactive
DVSYYERGSSVHYTHSD	inactive
VAFVNKCFSD	inactive
TCLWARSPVLEDFEYGLHGS	inactive
LLCLLQEIGFVAITGWI	inactive
DCVGYRGGDGFAWTADELWS	inactive
VACRFHMCLWLGRVLDYAKN	1.1 ± 0.14
RLSGVIGT	inactive
FIFHNHVFFDLSNMFRYYVY	1.92 ± 0.087
ALLKD	inactive

Substance	amyloid nucleation score
DMIKCGLSPDRVFIWYWPNK	inactive
FGWVFLYDKLIPVKPFELYF	inactive
ISLFFRICY	0.397 ± 0.27
SFWTMGNS	inactive
CLQSQFLNFE	inactive
AWYFAP	inactive
YCMYMCFSVMAGGGIVTMLW	inactive
PDKWSPGAYVKWWVGTKVQM	inactive
KNWYKVMSRYYKC	0.338 ± 0.38
VYNLVDIESEPKVVFNGLFL	inactive
ARFISVCEHEARLRERTCMC	inactive
LGAVCVQMKKIDLSKTLETR	inactive
SLLFRSLIWSTFDPCSELGP	inactive
YNGFSLIRFILFAHG	inactive
WGFVW	inactive
CCKSVKFKSLPARN	0.725 ± 0.24
VHLNPEN	inactive
LHCLEFSCVRHSVRY	2.14 ± 0.073
GKTLLTSKDGCV	inactive
TFVNLFIVPGKGQSVTGGCE	1.45 ± 0.13
AIRLYLDGIHQMHYYHTLCL	inactive
SCYIEWMVFGSYPL	inactive
SKLFVSVSTTIYFEEPSPA	inactive

Substance	amyloid nucleation score
PQLCESLELSEKRRTEDLVG	inactive
KSASKVGLMKAYRNASRTVI	inactive
MILCLLRKAQFCY	inactive
NSVGFACKEFMHVTAQTHKM	inactive
RIKLRLFTTHEYCSRDRCSD	inactive
IYSLYRCPFAVCLSSNWSCF	1.78 ± 0.11
KFGCSYTNYSITSPDNPSC	inactive
IINFSYANAVVIVWLNISMG	1.08 ± 0.16
SFYSNGKLLVILFATMMD	inactive
PTAFWGFGF	inactive
MDQMPKKYLVLAAAAVVRMV	inactive
FSEIVDYRGGIYGSYLNESM	inactive
IPLLNVFSTRRSTCLEGSFT	inactive
SSAIYVMRLPQCMAECSRPR	inactive
TYFTFSREVKMMVHTNCCLL	0.594 ± 0.2
YKDIRCGWLMFGVANLQ	inactive
LFCIWSSVLVRVHVFQKW	inactive
VAQFDRNLKPKVNYAVNELQ	inactive
SRRVRAYIRVFGLCKGFAEC	inactive
YWSAVHEDYHTASMMEPLWW	inactive
TYQVILSFYDLWFGRSAYCQ	inactive
MALEVFF	inactive
GLLMSMRSFFSGQVQNGAVL	inactive

Substance	amyloid nucleation score
VKRGCCLVICWARFNVSEAH	inactive
VRIFYMV	inactive
FIPGAMVRYQGRILLRSDAG	inactive
RSLLGGSKAVYTWDWQPAII	inactive
FRQYHMRRVRLHGRRDVYGQ	inactive
VRFCSEMVCLDYFSNIMHLG	inactive
RELYFSYDSLDYLGMRVWML	inactive
IQLMLFIDCLSENCYVWLRY	inactive
VGGQISRDNGCLSILMSFDN	inactive
PDHSHHCV	inactive
NFENMSCSNTVNVLFIEPGA	1.14 ± 0.096
EFNNFYFCFFTV	2.71 ± 0.064
SYISNP	inactive
LNALLGQYSDISMRISLNVS	inactive
ALNSLYTFMDRNNRELECGL	-0.688 ± 0.88
SVDDSFLYLYRYKGFCPNF	inactive
RWNGFVVNTFINTLGRLTKC	-0.578 ± 1
IYSIVFFSRSLTVRVFGAHY	inactive
LMKSMSNLLYADLKEYSQVG	inactive
SFCFSNDVA	inactive
DYIEGLECVFRDPARIFLWG	-0.226 ± 1.1
REKDSAAHVVE	inactive
GDVNCLNTVTLKNNKTRGHI	inactive

Substance	amyloid nucleation score
WMYHMHENYN	1.18 ± 0.1
FVFIQSHYQNMRFGKF	inactive
SCFCMKLSLFYGAIN	0.675 ± 0.51
TWMKMSTEWRTLDLDCWNSS	1.34 ± 0.13
IEINCCSNFIGVCVDNLNL	2.57 ± 0.055
PVAMAYAVSSVVDMASN	inactive
WLVRMN	inactive
VWVLSA	inactive
CFLVNQ	inactive
CCVGYFYGLEV	2.06 ± 0.064
YDWSVPAKSS	inactive
YRMSR	1.36 ± 0.1
PHHSRYAFYGNPTLAI	inactive
YPRPLFVRNLDVFHWLYTAV	inactive
PLNMSRCTLALTLFVISFGW	inactive
KFSCSDNPE	inactive
IATDRSSKVLSFHT	inactive
LAEGYVSVIRIYKRGWNEDV	inactive
SIPPRMRCFLGCFWSISWDA	inactive
SYRPMHTDGLSLYSRQNLSY	inactive
DSIAVCGRITPSLNLQFDMQ	inactive
HCHCIVEYQFFSVHLIRTYE	inactive
DDTRYHAHTSNLGRITHRIQ	inactive

Substance	amyloid nucleation score
IMWGYDSWFCSANHRSQFRY	-0.314 ± 0.98
CTLVLLKQ	inactive
NSDNHYFQRTMTNFANGKGC	inactive
AFVGRWYCGFVASVIFEMQG	0.069 ± 0.47
PDFNLWRTEMLSYNGWK	inactive
YLLCF	inactive
GECPRQRVSLM	inactive
NTRMDNLTNAWRAQYALSP	inactive
WTRMCSSVRTVR	inactive
HDSQMWYLSIIESYLVQYLM	inactive
SEIKYSYSYMRFLNCTETSN	inactive
VKLKNLSCKRLLRRHSACHR	inactive
STLILNRLYCFNLISLASLS	0.56 ± 0.2
RLAGCYYIP	inactive
NGRWRRFLWKNGCMELYRTG	1.52 ± 0.085
SIGVRTRLKLCC	inactive
WTVGCREWLSLCCSAKDTDA	inactive
TVVLSWPMYAECKFSCICMT	1.38 ± 0.1
ELISGLLRVGLDLKKAVSFD	inactive
LINKLENLIYSG	inactive
ITRDDTCSVYRLVK	inactive
IFSRGEGLLRRMVSL	inactive
QFNMKVFMHDWWRLLLPKSK	inactive

Substance	amyloid nucleation score
TNPLYYRS	inactive
IHLGMWIRKQFY	0.985 ± 0.15
CDWFILKA	inactive
PVGVLYTSANGTDFVNIVRD	inactive
ADPDVR	inactive
CSIHL	inactive
GATVLLSNFSVCPHMARSSG	inactive
MRVYFMWATTWLA	inactive
RYGIFMEHEIMYHLNPDGFY	inactive
GKTSGCWSFFYILIS	-0.388 ± 0.75
HYFSYIINTAMMRKAYILSG	0.543 ± 0.14
CQSSVLLCSYCGY	2.65 ± 0.074
TRKDDFDLSGCSR	inactive
MFFQLVCYFNLSTVMTSYFE	0.593 ± 0.14
VVCGANHLRIFFVNRVMWD	inactive
SNVVSTS	inactive
SSYLDTNWRMP	inactive
TIEQCGLS	inactive
IYQWTEFCGRIFQSCRMVLC	inactive
IPVNYLASDMFN	inactive
YDGQMVRVRLYPSWEQVYCV	-1.1 ± 1.4
FDNKFKHSYYDTLAA	inactive
QRIHGLF	inactive
